The values below come from the nanobody polyreactivity screen of Harvey et al. (2022).

This series in a line: yeast display, Sf9 membrane polyspecificity reagent, FACS + sequencing; frameworks hold sequencing errors. The essentials: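 After 36–48 hours of galactose induction, yeast (Saccharomyces cerevisiae BJ5465) displaying a synthetic nanobody library were stained at 4 °C for 1 hour with 10% biotinylated, detergent-solubilized Sf9 membrane reagent. Streptavidin microbeads enriched the stained cells before FACS sorting into low and high (top ~1%) gates on anti-HA and streptavidin fluorescence. Each clone's polyreactivity label reflects its gate of origin.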
In the case of “QVQLVESGGGLVQAGGSLRLSCAASGSIFKYNTMGWYRQAPGKERELVAAISSGGRTYYADSVKGRFTISRDNAKNSVYLQMNSLKPEDTAVYYCAARWSFFKTTHRNNYWGQGTQVTVSS”, the “polyreactivity (PSR sort gate)” value is recorded as “high polyreactivity”.

For “QVQVVESGGGLVQAGGSLRLSCAPSGRIFQLYAMGRYRQAPRKERELVAVISSGDRTYYADSVKGRFTISRDNAKNTVYLQMNSLKPEDTAVYYCAALGWQSGGSRWHGEYDYWGQGTQVTVSS”, the “polyreactivity (PSR sort gate)” value is “low polyreactivity”.

Take “QVQLVESGGGLVQAGGSLRLSCAASGSTIRYYVKGWYRQAPGKERELVAAISYNGGSTYYADSVKGRFTISRDTAKNTVYLHMNSVTPEDTAVYYCAADAPYRSSGKDYWGQGTQVTVSS”: the “polyreactivity (PSR sort gate)” value is listed as “high polyreactivity”.

Take “QVQLQESGGGLVQAGGSLRLTCAASGSIFLNSEMGWYRQAPGKERELVAAIATGTSTNYADSVKGRFTISRDNAKNTVYLQMNSLKPEDTAVYYCATYHYWGQGTQVTVSS”: the “polyreactivity (PSR sort gate)” value is reported as “low polyreactivity”.

With “QVQLVESGGGLVQAGGSLRLSCAASGRTFSINAMGWYRQAPGKERELVASISSRGTRTNYADSVKGRFTISRDNAKNTVYLQMNSLKPEDTAVYYCAADRYYPYYSAWREYEYWGQGTQVTVSS”, the “polyreactivity (PSR sort gate)” value was “high polyreactivity”.

With “QVQLVESGGGLVQAGGSLRLSCAASGRIFGGYAMGWYRQAPGKERELVAAIDLSGGSTYYADSVKGRFTISRDNAKNTVYLQMNSLKPEDNAVYYCAADAYPVYYYLSTYDPWYDYWGQGTQVTVSS”, the “polyreactivity (PSR sort gate)” value is “low polyreactivity”.

“QVQLVESGGGLVQAGGSLRLSCAASGSIFSQNAIGWYRQAPGKEMELVAAISSSGTRTYYADSVKGRFTISRDHAKNTVYLQMNSLKPEDTAVYYCNKVLFRPRFFVRSDYWGQGTQVSVSS”: the “polyreactivity (PSR sort gate)” value is listed as “high polyreactivity”.

With “QVQLVESGGGLVQAGGSLRLSCAASVSTFVGNAMGWYRQAPGKERELHAAISSGGSRTNYADSVKGRFTISRDNAKNTVYLQMNSLKPEDTAVYYCIAVFPRWQGSGRFAGGDYWGQGTQVTLSS”, the “polyreactivity (PSR sort gate)” value was “high polyreactivity”.

With “QVQLVESGGGLVQAGGSLRLSCAASGITFWKYAMGWYRQAPGKERELVAAISGRGGSTYYADSVKGRFTISRDNAKNTVYLQMNSLKPEDTAVYSCDTRTYYRYPVFYWGQGTQVTVSS”, the “polyreactivity (PSR sort gate)” value is recorded as “high polyreactivity”.

For “QVQLVESGGGLVQAGGSLRLSCAASGLTFGTNSMGWYREAPGKEMELVAAISTSSGSTYYADSVKGRFTISRDNAKNTVYLLMNRLKPEDTAVFYCAAVTVTKLSYYRYYYWGQCTQVTVSS”, the “polyreactivity (PSR sort gate)” value is given as “low polyreactivity”.

For “QVQLVESGGGLVQAGGSLRLSCAASGLIFGVYAMGWYRQAPGKERELVAGISWRGSSTYYADSVKGRFTISRDNAKNTVYLQMNSLKPEDTAVYYCAAVRRPSRHAYGGTAVYYWGQGTQVTVSS”, the “polyreactivity (PSR sort gate)” value is “high polyreactivity”.

Turning to “QVQLVESGGGLVQAGGSLRLSCAASGRTFTSNAMGWYRQAPGKERELVAAISNRGTRTYYADSVKGRFTISRDNAKNTVYLQMNSLKPEDTAVYYCAARVSTVFKRYYYWGQGTQVTVSS”, the “polyreactivity (PSR sort gate)” value is on record as “high polyreactivity”.

“QVQLVESGGGLVQAGGSLRLSCAASGRTFYRYVMGWYRQAPGKERELVAAIRSSGTSTYYADSVKGRFTISRDNAKNTVYLQMNSLKPEDTAVYYCARDSYRGYVYSLDYWGQGTQVTVSS”: the “polyreactivity (PSR sort gate)” value is listed as “high polyreactivity”.

Take “QVQLVESGGGLVQAGGSLRLSCAASGRTFQANAMGWYRQAPGTERELVAAITGRGGTTYYADSVKGRFTISRDTAKNTVYVQMYSLKPEDTAVYYCALALSGYGFWGYDYWGLGTQVTVSS”: the “polyreactivity (PSR sort gate)” value was “low polyreactivity”.

On to “QVQLVESGGGLVQAGGILRLSCAASGSIFRNYAMGWYRQAPGKERELVAAISVRGGSTYYADSVKGRFTISRDNTKNTVYLQMNSLKPEDTAVYYCNARTYYPVYYRDGGYWGQGTQVTVSS”, for which the “polyreactivity (PSR sort gate)” value is listed as “high polyreactivity”.

For the sequence “QVQLVESGGGLVQAGGSLRLSCAASGYIFRYNEMGWYRQAPGKERALVAAIRATGGSTYYADSVKGRFTISRDNAKNTVYLQMNSLKPEDTAVYYCNAGGQGRTYRYYYWGQGTQVTVSS”, the “polyreactivity (PSR sort gate)” value is given as “high polyreactivity”.

On to “QVQLVESGGGLVQAGGSLRISCAASGIIFPYYVMGWYRQAPGKERELVAAINSGGRTYYADSVKGRFTISRDNAKNTVYLQMNSLKPEDTAVYYCARDLYYVYSFAPYRYEYWGQGTQVTVSS”, for which the “polyreactivity (PSR sort gate)” value is recorded as “low polyreactivity”.

In the case of “QVQLVESGGGLVQAGGSLRLSCAASGSIYGYTMGWYRPAPGKERELVAAINRRADRTYYADSVKGRYTISRDNAKNTVYLQMNSLKPEDTAVYYCNKGGWYTLGYWGQGTQVTVSS”, the “polyreactivity (PSR sort gate)” value is “high polyreactivity”.

Turning to “QVQLVESGGGLVQAGGSLRLSCAASGFTFDRNAMGWYRQAPGKERGLVAAISSSGGRTYYADSVKGRFTISRDNAKNTVYLQMNSLKPEDTAVYYCAAVFFSRPSAYGSRYYWGQGTQVTVSS”, the “polyreactivity (PSR sort gate)” value is listed as “high polyreactivity”.

Regarding “QVQLVESGGGLVQAGGSLRLSFAASGFTFRYYVMGWYRQAPGKERELVASISRGGSTTNYADSVKGRFTISRDNAKNTVFLQMNSLKPEDTAVYDCNVVITPGYSYDISRGEGYWGQGTQVTVSS”, the “polyreactivity (PSR sort gate)” value is on record as “high polyreactivity”.

As for “QVQLVESGGGLVQAGGSLRLSCAASGFTFTRNTMGWYRQAPGKERELVADINWDDGSTNYADSVKGRFTISRDNAKNTVYLQMNSLKPEDTAVYYCAADYYFYYLYPSSNLYNYWGQGTQVTVSS”, the “polyreactivity (PSR sort gate)” value is reported as “low polyreactivity”.

Take “QVQLVESGGGLVQSGGSLRLSCAASGRIFWYNAMRWYSQAPGKDRELVARITRGTRTYYADSVKGRFTISRDNAKNTVYLQMNSLKPEDTAVYYCRLQFSYTPHYDYWGQGTQVTVSS”: the “polyreactivity (PSR sort gate)” value is on record as “high polyreactivity”.

For “VVQLVESGGGLVQAGGRLRLSCAASGIIFGRYAMGWYRQAPGKERELVASITGNGSTTYYADSVKGRFTISRDNAKNTVYLQMNSLKPDDTAGYYCAADIVVGSPSAEFDYWGQGTQVTVSS”, the “polyreactivity (PSR sort gate)” value is recorded as “low polyreactivity”.

As to “QVQLVESGGGLVQAGGSLRLSCAASGIIFAYYDMGLYRKAPGKERELVAAISSTGSNTYYADSVKGRFTISRDNAKNTVYLQMNSLKPEDTAVYYCAAGYAYYIGHGDYWGQGTQVTVSS”, the “polyreactivity (PSR sort gate)” value is “high polyreactivity”.

Take “QVQLVESGGGLVQAGGSLRLSCAASGRIFGQNVMGWYIQAPGKERELVAAITSAGRTYYADSVKGRFTISRDIAKNTVYLQMKSLKPEDTAVYYCAAYVRRGFDWGQGTQVTVSS”: the “polyreactivity (PSR sort gate)” value is on record as “high polyreactivity”.

Consider “QVQLVESGGGLVQAGGSLRLSCAASGRIFSPYAMGWYRQAPGKERELVAAISSSGTYYADSVKGRFTISRDNAKNTVYLQMNSLKPEDTAVYYCNARRYWGRYDYWGQGTQVTVSS”, for which the “polyreactivity (PSR sort gate)” value is listed as “high polyreactivity”.

Consider “HVQLVESGGALVQAGGSLRLSCAASGYIFYYYAMGWYRQAPGKERELVAAITFSGGSTYYADSVKGRFTISRDIAKNTVYLQMNSLKPEDTAGYYCDKVELRDAAELGSDEYDYWGQGTKVTVSS”, for which the “polyreactivity (PSR sort gate)” value is listed as “low polyreactivity”.

Take “QVQLVESGGGLVQAGGSLRLSCAASGSTFTGNVMGWYRQAPGKERELVAAIRDSGGSTYYADSVKGRFTISRDNAKNTVYLQMNSLKPEDTAVYYCDAEYLYGSYYGYYYWGQGTQVTVSS”: the “polyreactivity (PSR sort gate)” value is given as “low polyreactivity”.

“QVQLVESGGGLVQAGGSLRLSCAASGSIFEFNAMGWYRQAHGKERELVSAITWSGTSTYYADSVKGRFTISRDNAKNTVYLQMKSLKPEDTAVYYCGADSTDYFYWGQGTQVTVSS”: the “polyreactivity (PSR sort gate)” value is “high polyreactivity”.

Take “QVQLVESGGGLVQAGGSLSLSCADSGSNFGDYAMGWYRQAPGKERELFAAISFSDGSTYYADSVKGRFTISRDNANNTVYLQMNSLKPEDTAVYYCAKDAYWGYRWYTYDYWGQGTQVTVSS”: the “polyreactivity (PSR sort gate)” value is “low polyreactivity”.

Regarding “QVQLVESGGGLVQAGGSLRLSCAASGRIFPSYAMVWYIQAPGKEREMVATISYRGTSTYYADSVKGRFTISRDNAKNTVYLQMNSLKPEDTGVYYCNKATRHHFYYWGQGTQVTVSS”, the “polyreactivity (PSR sort gate)” value is “high polyreactivity”.

On to “QVQLVESGGGLFQAGGSLRLSCAASGSIFQYYTMRWYRQAPGKERELVATINNNGGRTYYADSVKGRFTISRDNAMNSVYFQMYSLKPVDTAVYYCATDIWRYYRGWEDYWGQGTEVTVSS”, for which the “polyreactivity (PSR sort gate)” value is given as “high polyreactivity”.

As to “QVQLEESGGGLVQAGGSLRLSCAASGSILYVYAMGWSRQAPGKERELVAAMTRSGDTTSYADSVKGRFTISRDFAKNTVYLQLNSLKPEDTAVYYCDAAERRYGRGYGYWGQCTQVTVSS”, the “polyreactivity (PSR sort gate)” value was “high polyreactivity”.

With “QVQLVESGGGLVQAGGSLRLSCDASGLIFYSYAMGWYRQAPGKERELVAAISSRGGSTYYADSVKGRFTISRDNAKNTVYLQMNSLKQEDSAVYYCNAYFLLPHYDYWGQGTQVTVSS”, the “polyreactivity (PSR sort gate)” value is given as “low polyreactivity”.

Take “QVQLVESGGGLVQAGGSLRLSCAASGSTFVYYAMGWYRQAPGKERELVAASTYADSVKGRFTISRDNAKNTVYLQMNSLKPEDTAVYYCAADFVSAYFTIYDYWGQGTQVTVSS”: the “polyreactivity (PSR sort gate)” value is recorded as “low polyreactivity”.

Regarding “QVQLVESGGGLVQAGGSLRLSCAASGRIFQDYARGWYRQAPGKERELVPSIRWSSTSTYYADSVKGRFTISRDNAKNTVYLQMNSLKPEDTAVYYCNARYPYYTRTRDGRMYYWGQGTQVTVSS”, the “polyreactivity (PSR sort gate)” value was “low polyreactivity”.

Consider “QVQLVESGGRLVQAGCSLRLSCAASGSIFDVYAMGWYRPAPGKERELVAAISRGGRTYYADSVKGRFTISRDNAKNTVYLQMNSLKPEDTAVYYCAAVTRLDGNMDYWGQGTQVTVSS”, for which the “polyreactivity (PSR sort gate)” value was “high polyreactivity”.

As to “QVQLVESGGGLVQAGGSLRLSCAASGRTFRSYAMGWYRQAPGKERELVATITRGSSTNYADSGKGRFTISRDNAKNTVYLQMNSLKPEDTAVYYCNADGKPPYISWLYDYWGQGTQVTVSS”, the “polyreactivity (PSR sort gate)” value is listed as “low polyreactivity”.

For “QVQLVESGGGLVQAGGSLRLSCAASGTTFGRNTMGWYRQAPGKERELVAAISKSGGSTRYADSVKGRFTISRDNAKNTVYLQMNRLKAEDTAFYYCAARVYSLGYGGDYWGQGTQVTVSS”, the “polyreactivity (PSR sort gate)” value is recorded as “high polyreactivity”.

In the case of “QVQLVESGAGLVQAGGSLRLSCAASGRIFYPYAMGRSRQAPGKERELVAAISGRGGRTYYADSVKGRFTISRDNAKNTVYLQMKSLKPEYTAVYYCNRVVSGYPGSDYWGNGTQVTVSS”, the “polyreactivity (PSR sort gate)” value is given as “high polyreactivity”.

Regarding “QVQLLESGGGLVQAGGTLRLSCAASGYTFAWYAMVWSRQAPGKERELVAAINNGGSTSYADSVKGRFTISRDNAKNTVYLQMNSLKREDTAVYYCAARPGAHPDRLDYWGQGTQVTVSS”, the “polyreactivity (PSR sort gate)” value was “low polyreactivity”.
